Experimental data published in patent publication US20240156980A1 (Molecular Partners, published 2024).
One block for each binder: values may come before it.

Columns and labels:
[1] = biological target: T1, human EGFR on tumor cells (human, UniProt P00533 25-1210); assay: flow cytometry on HCT 116 tumor cells, detection with anti-DARPin antibodies
T1 construct: whole, on cells; also called EGFR on A431 cells
Procedure: (§1) The determination of CD3 binding was performed with human CD3 on Jurkat cells, and binding to hEGFR on cells with HCT116 tumor cells, using Flow Cytometer Attune Nxt. A titration of prodrug DARPin molecules was incubated with 200′000 cells per well (for both Jurkat and HCT116 cells) for 30 min at 4° C. After washing, CD3 binding of DARPin® molecule was detected by 1:1000-diluted anti-DARPin® Antibody-Mix (1 h incubation at 4° C.) with the corresponding secondary antibody anti-rabbit IgG Alexa Fluor 488 (30 min incubation at 4° C.), which was added after washing off excess anti-DARPin Antibodies. Cells were subsequently washed and stained for livedead (aqua, 1:1000, thermofisher) and resuspended in Cytofix fixation buffer (BD Biosciences). Median of mean fluorescence intensities of Alexa Fluor 488 binding on live cells were measured by Flow Cytometry and data was plotted using GraphPad Prism 8.

human CD3 on T cells [2] = biological target: T2, human CD3 on T cells (human, UniProt P07766 23-207; P09693 23-182; P04234 22-171); assay: cell-based or functional assay
T2 sequence (P07766 23-207, chain 1 of 3): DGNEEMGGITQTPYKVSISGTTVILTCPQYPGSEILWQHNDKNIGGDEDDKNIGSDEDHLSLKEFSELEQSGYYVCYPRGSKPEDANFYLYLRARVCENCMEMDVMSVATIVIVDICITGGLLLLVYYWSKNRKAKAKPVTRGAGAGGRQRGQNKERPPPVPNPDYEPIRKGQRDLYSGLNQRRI
T2 sequence (P09693 23-182, chain 2 of 3): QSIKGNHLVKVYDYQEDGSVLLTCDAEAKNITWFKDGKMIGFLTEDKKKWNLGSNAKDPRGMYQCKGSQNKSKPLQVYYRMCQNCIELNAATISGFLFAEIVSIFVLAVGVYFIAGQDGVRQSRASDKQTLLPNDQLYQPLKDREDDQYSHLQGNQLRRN
T2 sequence (P04234 22-171, chain 3 of 3): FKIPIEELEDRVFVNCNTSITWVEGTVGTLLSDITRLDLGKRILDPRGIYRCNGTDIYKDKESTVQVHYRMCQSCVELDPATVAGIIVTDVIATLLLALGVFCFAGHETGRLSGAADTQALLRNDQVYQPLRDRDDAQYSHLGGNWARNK

human CD3 on T cells [3] = biological target: T2, human CD3 on T cells; assay: flow cytometry on Jurkat cells, detection with anti-DARPin antibodies
Procedure: as §1

human CD3 on T cells [4] = biological target: T2, human CD3 on T cells; assay: cell-based or functional assay; remark: listed apart in the source
[5] = biological target: T3, CD3-specific binding domain C7v119; assay: SPR (ProteOn XPR36), biotinylated Binder captured on NLC neutravidin chip as ligand, CD3-specific binding domain as analyte, PBS-T, 25 C; KD from kon/koff
T3 construct: Used as analyte in SPR; also called hC22_88B02v119
T3 chain: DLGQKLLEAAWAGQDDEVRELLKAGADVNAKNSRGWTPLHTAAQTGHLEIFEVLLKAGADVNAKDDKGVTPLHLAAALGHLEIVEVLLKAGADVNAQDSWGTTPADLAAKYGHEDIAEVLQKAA
From the text: (§2) An important feature of a binding moiety of the invention is its affinity towards a drug molecule. Relevant aspects include the off-rate of the binding moiety from the drug molecule and the resulting blocking half-life. Surface plasmon resonance (SPR) assays were used to determine the binding affinity of ankyrin repeat binding domains to the CD3 binding domain of a TCE drug molecule. AN SPR data was generated using a Bio-Rad ProteOn XPR36 instrument with PBS-T (0.005% Tween 20) as running buffer. A new neutravidin sensor chip (NLC) was air-initialized and conditioned according to Bio-Rad manual.

[6] = biological target: T4, CD3-specific binding domain C7v14; assay: as above
T4 construct: Used as analyte in SPR; also called hC22_88B02v14
T4 chain: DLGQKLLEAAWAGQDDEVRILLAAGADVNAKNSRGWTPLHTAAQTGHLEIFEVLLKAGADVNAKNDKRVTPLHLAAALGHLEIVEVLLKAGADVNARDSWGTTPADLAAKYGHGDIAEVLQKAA
From the text: as §2

[7] = biological target: T5, CD3-specific binding domain C7v118; assay: as above
T5 construct: Used as analyte in SPR; also called hC22_88B02v118
T5 chain: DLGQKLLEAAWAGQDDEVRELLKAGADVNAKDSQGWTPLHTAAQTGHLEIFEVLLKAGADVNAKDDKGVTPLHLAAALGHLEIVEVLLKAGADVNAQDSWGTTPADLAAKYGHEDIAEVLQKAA
From the text: as §2

[8] = biological target: T6, CD3-specific binding domain C7v127; assay: as above
T6 construct: Used as analyte in SPR; also called hC22_88B02v127
T6 chain: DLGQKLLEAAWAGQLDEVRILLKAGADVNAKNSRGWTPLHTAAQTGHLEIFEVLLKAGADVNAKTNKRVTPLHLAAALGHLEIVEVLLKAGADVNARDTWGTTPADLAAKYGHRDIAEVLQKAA
From the text: as §2

[9] = biological target: T7, CD3-specific binding domain C7v122; assay: as above
T7 construct: Used as analyte in SPR; also called hC22_88B02v122
T7 chain: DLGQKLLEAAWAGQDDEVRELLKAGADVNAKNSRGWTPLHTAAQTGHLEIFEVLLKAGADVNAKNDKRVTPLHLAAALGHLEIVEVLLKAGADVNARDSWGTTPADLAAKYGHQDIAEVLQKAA
From the text: as §2

[10] = biological target: T4, CD3-specific binding domain C7v14; assay: SPR (affinity cited in Example 9; CD3-binding domain taken as C7v14); high affinity Binder #1
From the text: as §2

[11] = biological target: T3, CD3-specific binding domain C7v119; assay: SPR (ProteOn XPR36), biotinylated Binder captured on NLC neutravidin chip as ligand, CD3-specific binding domain as analyte, PBS-T, 25 C; KD by equilibrium fitting
From the text: as §2

[12] = biological target: T4, CD3-specific binding domain C7v14; assay: as above
From the text: as §2

[13] = biological target: T5, CD3-specific binding domain C7v118; assay: as above
From the text: as §2

[14] = biological target: T6, CD3-specific binding domain C7v127; assay: as above
From the text: as §2

[15] = biological target: T7, CD3-specific binding domain C7v122; assay: as above
From the text: as §2

[16] = biological target: T4, CD3-specific binding domain C7v14; assay: SPR (affinity cited in Example 9; CD3-binding domain taken as C7v14); lower affinity Binder #3
From the text: as §2

[17] = biological target: T6, CD3-specific binding domain C7v127; assay: SPR (ProteOn XPR36), biotinylated Binder on NLC chip, CD3-specific binding domain as analyte, 25 C
From the text: as §2

[18] = biological target: T1, human EGFR on tumor cells; assay: cell-based or functional assay
[19] = biological target: T1, human EGFR on tumor cells; assay: cell-based or functional assay; remark: listed apart in the source

EC50 [1]: 0.427 nM
EC50 (human CD3 on T cells [3]): > 10 nM
T-cell activation EC50, HCT 116 tumor cells and pan T-cells (human CD3 on T cells [4]): 0.0108 nM
B1: Active TCE EGFR-C7v119-6His (designed binder)
chain: MGSDLGYKLLRAAFHGQDDEVRILLAAGADVNAKDLIGQTPLHNAAWVGHLEIVEVLLKAGADVNAKDYYGNTPLHLAAHDGHLEIVEVLLKAGADVNAQDTWGETPADLATNAGHEDIAEVLQKAAGSPTPTPTTPTPTPTTPTPTPTGSDLGQKLLEAAWAGQDDEVRELLKAGADVNAKNSRGWTPLHTAAQTGHLEIFEVLLKAGADVNAKDDKGVTPLHLAAALGHLEIVEVLLKAGADVNAQDSWGTTPADLAAKYGHEDIAEVLQKAAGSHHHHHH
notes: Bispecific ankyrin repeat protein; also called active TCE (C7v119 comprising construct); anti-EGFR x anti-CD3
tumor cell killing EC50 (LDH release), HCT 116 tumor cells and pan T-cells (human CD3 on T cells [2]): 0.0074 nM
tumor cell killing EC50, HCT 116 tumor cells and pan T-cells (human CD3 on T cells [4]): 0.0185 nM

EC50 [1]: 0.518 nM
EC50 (human CD3 on T cells [3]): 7.9 nM
T-cell activation EC50, HCT 116 tumor cells and pan T-cells (human CD3 on T cells [4]): 0.0068 nM
B2: Active TCE EGFR-C7v122-6His (designed binder)
chain: MGSDLGYKLLRAAFHGQDDEVRILLAAGADVNAKDLIGQTPLHNAAWVGHLEIVEVLLKAGADVNAKDYYGNTPLHLAAHDGHLEIVEVLLKAGADVNAQDTWGETPADLATNAGHEDIAEVLQKAAGSPTPTPTTPTPTPTTPTPTPTGSDLGQKLLEAAWAGQDDEVRELLKAGADVNAKNSRGWTPLHTAAQTGHLEIFEVLLKAGADVNAKNDKRVTPLHLAAALGHLEIVEVLLKAGADVNARDSWGTTPADLAAKYGHQDIAEVLQKAAGSHHHHHH
notes: Bispecific ankyrin repeat protein; also called active TCE (C7v122 comprising construct); anti-EGFR x anti-CD3
tumor cell killing EC50 (LDH release), HCT 116 tumor cells and pan T-cells (human CD3 on T cells [2]): 0.0022 nM
tumor cell killing EC50, HCT 116 tumor cells and pan T-cells (human CD3 on T cells [4]): 0.0072 nM

Kd [5]: 0.36 nM
Kd [6]: 0.33 nM
Kd [7]: 0.44 nM
Kd [8]: 0.02 nM
Kd [9]: 0.21 nM
Kd [10]: < 1 nM
B3: Binder #1 (designed binder)
chain: MRGSHHHHHHGSDLGKKLLQAARAGQLDEVRELLKAGADVNAKDAKGLTPLHLAAYHGHLEIVEVLLKAGADVNAKDVYGWTPLHIAAASGHLEIVEVLLKAGADVNAKDWLGWTPLHLAASHGHLEIVEVLLKAGADVNAQDKSGKTPADLAARAGHQDIAEVLQKAA
modifications: biotinylated for SPR (site not stated)
notes: also called 06E05

Kd [11]: 336 nM
Kd [12]: 189 nM
Kd [13]: 683 nM
Kd [14]: 53.4 nM
Kd [15]: 149 nM
Kd [16]: > 100 nM
B4: Binder #3 (designed binder)
chain: MRGSHHHHHHGSDLGKKLLQAARAGQLDEVRELLKAGADVNAKDAKGLTPLHLAAYHGHLEIVEVLLKAGADVNAKDVYGWTPLHIAAASGHLEIVEVLLKAGADVNAKDALGWTPLHLAASHGHLEIVEVLLKAGADVNAQDKSGKTPADLAARAGHQDIAEVLQKAA
modifications: biotinylated for SPR (site not stated)
notes: N-terminal His-tag; also called 06E05v05

binding result [17]: binds
Kd [11]: 37.5 nM
Kd [12]: 35.3 nM
Kd [13]: 41.4 nM
Kd [15]: 27.2 nM
B5: Binder #4 (designed binder)
chain: MRGSHHHHHHGSDLGKKLLQAARAGQLDEVRELLKAGADVNAKDAKGLTPLHLAAYHGHLEIVEVLLKAGADVNAKDVYGWTPLHIAAASGHLEIVEVLLKAGADVNAKDWLGWTPLHLAASAGHLEIVEVLLKAGADVNAQDKSGKTPADLAARAGHQDIAEVLQKAA
modifications: biotinylated for SPR (site not stated)
notes: N-terminal His-tag; also called 06E05v07

binding result [17]: binds
Kd [5]: 141 nM
Kd [6]: 114 nM
Kd [7]: 126 nM
Kd [9]: 92.4 nM
B6: Binder #2 (designed binder)
chain: MRGSHHHHHHGSDLGKKLLQAARAGQLDEVRELLKAGADVNAKDAKGLTPLHLAAYHGHLEIVEVLLKAGADVNAKDVAGWTPLHIAAASGHLEIVEVLLKAGADVNAKDWLGWTPLHLAASHGHLEIVEVLLKAGADVNAQDKSGKTPADLAARAGHQDIAEVLQKAA
modifications: biotinylated for SPR (site not stated)
notes: N-terminal His-tag; also called 06E05v03

T-cell activation EC50 (CD25 on CD8+ T cells), EGFR+ HCT 116 tumor cells and pan T-cells [18]: 0.0532 nM
T-cell activation EC50 (CD25 on CD8+ T cells), EGFR+++ A431 tumor cells and pan T-cells [18]: 0.679 nM
masking window (EC50 difference between active TCE and CD3-PDD NCL), T-cell activation with A431 cells [19]: ~200 fold
B7: CD3-PDD NCL EGFR-C7v14-[NCL2]-06E05v05-6His (designed binder)
chain: MGSDLGYKLLRAAFHGQDDEVRILLAAGADVNAKDLIGQTPLHNAAWVGHLEIVEVLLKAGADVNAKDYYGNTPLHLAAHDGHLEIVEVLLKAGADVNAQDTWGETPADLATNAGHEDIAEVLQKAAGSPTPTPTTPTPTPTTPTPTPTGSDLGQKLLEAAWAGQDDEVRILLAAGADVNAKNSRGWTPLHTAAQTGHLEIFEVLLKAGADVNAKNDKRVTPLHLAAALGHLEIVEVLLKAGADVNARDSWGTTPADLAAKYGHGDIAEVLQKAASGPTPTPTTPTPTPTTPTPTPTGSDLGKKLLQAARAGQLDEVRELLKAGADVNAKDAKGLTPLHLAAYHGHLEIVEVLLKAGADVNAKDVYGWTPLHIAAASGHLEIVEVLLKAGADVNAKDALGWTPLHLAASHGHLEIVEVLLKAGADVNAQDKSGKTPADLAARAGHQDIAEVLQKAAGSHHHHHH
